The source of these data is US20160017018A1 (GENERAL HOSPITAL, published 2016).

For the experiment, the target named is T1, human CD80 (human, UniProt P33681 35-288).
T1 construct: whole, on cells; also called human CD80-expressing acute myelogenous leukemia cell line (Cat#CRL-2740, ATCC)
T1 sequence (looked up): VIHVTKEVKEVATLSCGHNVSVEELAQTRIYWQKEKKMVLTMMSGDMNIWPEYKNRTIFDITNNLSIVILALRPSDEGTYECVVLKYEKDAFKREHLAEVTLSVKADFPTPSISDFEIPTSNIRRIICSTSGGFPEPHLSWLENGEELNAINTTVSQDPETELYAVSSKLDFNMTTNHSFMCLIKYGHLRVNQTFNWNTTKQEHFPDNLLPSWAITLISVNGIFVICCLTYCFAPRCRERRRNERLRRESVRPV
The experiment in a line: flow cytometry on human CD80-expressing AML cells; grade = binding percentage of the wild-type, ++++ (100%).

Source text: FIGS. 1A-C. […] PE-SA only; biotinylated protein control [porcine CD3εγ ectodomain single-chain fusion protein (pCD3εγ)] […] B) Bar graph presentation of the mean fluorescence intensity (MFI) from flow cytometry binding analysis data as described in A). Different concentrations of biotinylated pCD3εγ were used as non-specific fluorescence control. Error bars are included based on the calculated standard deviation. […] The concentration of the competitor is indicated. All figures of 1A-C are representatives of multiple individual experiments.

B1: Non-N-Glycosylated soluble human CTLA-4-6×His (receptor)
chain: KAMHVAQPAVVLASSRGIASFVCEYASPGKATEVRVTVLRQADSQVTEVCAATYMMGNELTFLDDSICTGTSSGNQVALTIQGLRAMDTGLYICKVELMYPPPYYLGIGAGTQIYVIDPEPCPDSDHHHHHH
modifications: biotinylated for the direct binding stain (sites not given); unlabeled in the blocking assay
notes: Expressed in Pichia pastoris; also called wild-type soluble human CTLA-4; human CTLA-4 wild-type
Take B1: the binding result is “binds”.
